The supplement of paper PMC7877785
± gives the uncertainty stated by the source.

Test: self-splicing fitness, log relative to wild type (ln ratio); higher = more splicing; Tetrahymena group I intron in knt gene, E. coli kanamycin selection, DiMSum; sequences stand for … in CUCUCU…GGAGGGAAAAGUUAUCAGGCAUGCACCUGGUAGCUAGUCUUUAAACCAAUAGAUUGCAUCGGUUUAAAAGGCAAGACCGUCAAAUUGCGGGAAAGGGGUCAACAGCCGUUCAGUACCAAGUCUCAGGGGAAACUUUGAGAUGGCCUUGCAAAGGGUAUGGUAAUAAGCUGACGGACAUGGUCCUAACCACGCAGCCAAGUCCUAAGUCAACAGAUCUUCUGUUGAUAUGGAUGCAGUUCACAGACUAAAUGUCGGUCGGGGAAGAUGUAUUCUUCUCAUAAGAUAUAGUCGGACCUCUCCUUAAUGGGAGCUAGCGGAUGAAGUGAUGCAACACUGGAGCCGCUGGGAACUAAUUUGUAUGCGAAAGUAUAUUGAUUAGUUUUGGAGUACUCGUGGUCG
How it was run: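 Colonies from six replicate transformations of E. coli BL21(DE3) were pooled and amplicon-sequenced on an Illumina HiSeq 2500. The library placed an intron with all eight P1ex-region nucleotides randomised inside the knt kanamycin-resistance gene on pET-22b(+), and cells grew overnight at 37°C or 30°C on LB agar with or without 25 μg/mL kanamycin (plus 100 μg/mL carbenicillin, 50 μM IPTG, 0.2% rhamnose). Fitness is the DiMSum error-weighted combination of wild-type-normalised replicate fold changes, kanamycin versus none.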

| Sequence | self-splicing fitness (ln) (30 °C) | self-splicing fitness (ln) (37 °C) |
| --- | --- | --- |
| UACAAGCAAUAUUACGAGAC | -3.27 ± 0.43 | -1.43 ± 0.23 |
| UACAAGCAAUAUUACGCAGG | -2.78 ± 0.11 | -1.7 ± 0.095 |
| UACAAGCAAUAUUACGCAUC | -2.99 ± 0.16 | -2.02 ± 0.18 |
| UACAAGCAAUAUUACGCAUG | -2.07 ± 0.088 | -0.74 ± 0.086 |
| UACAAGCAAUAUUACGCCCG | 0.87 ± 0.18 | 0.761 ± 0.23 |
| UACAAGCAAUAUUACGCGCC | -1.66 ± 0.13 | -0.798 ± 0.13 |
| UACAAGCAAUAUUACGCUCG | -1.26 ± 0.088 | 0.16 ± 0.11 |
| UACAAGCAAUAUUACGGCGU | -1.14 ± 0.11 | -0.846 ± 0.098 |
| UACAAGCAAUAUUACGGGAG | -3.1 ± 0.12 | -1.49 ± 0.094 |
| UACAAGCAAUAUUACGGGAU | -3.65 ± 0.17 | -1.39 ± 0.11 |
| UACAAGCAAUAUUACGGGCA | -0.0705 ± 0.063 | 0.152 ± 0.072 |
| UACAAGCAAUAUUACGGGCU | -4.2 ± 0.34 | -2.82 ± 0.18 |
| UACAAGCAAUAUUACGGGUA | -1.13 ± 0.072 | -0.839 ± 0.077 |
| UACAAGCAAUAUUACGGGUU | -2.8 ± 0.091 | -1.63 ± 0.097 |
| UACAAGCAAUAUUACGGUAA | -2.12 ± 0.1 | -1.15 ± 0.1 |
| UACAAGCAAUAUUACGGUGC | -3.55 ± 0.26 | -2.35 ± 0.21 |
| UACAAGCAAUAUUACGGUUC | -3.49 ± 0.15 | -1.73 ± 0.13 |
| UACAAGCAAUAUUACGGUUU | -1.86 ± 0.093 | -0.738 ± 0.095 |
| UACAAGCAAUAUUACGUACU | -2.71 ± 0.14 | -1.45 ± 0.13 |
| UACAAGCAAUAUUACGUCCU | -1.16 ± 0.1 | 0.292 ± 0.15 |
| UACAAGCAAUAUUACGUCGC | -2.94 ± 0.11 | -2.51 ± 0.14 |
| UACAAGCAAUAUUACGUCUA | -0.798 ± 0.049 | 0.00361 ± 0.068 |
| UACAAGCAAUAUUACGUCUC | -1.68 ± 0.1 | -2.24 ± 0.17 |
| UACAAGCAAUAUUACGUGUC | -3.91 ± 0.14 | -1.15 ± 0.094 |
| UACCAGCAAUAUUACGAAUC | -2.37 ± 0.2 | -1.05 ± 0.23 |
| UACCAGCAAUAUUACGAAUG | -0.839 ± 0.055 | -0.00427 ± 0.073 |

| Sequence | self-splicing fitness (ln) (30 °C) | self-splicing fitness (ln) (37 °C) |
| --- | --- | --- |
| UACCAGCAAUAUUACGACAA | -0.483 ± 0.099 | -0.494 ± 0.09 |
| UACCAGCAAUAUUACGACAG | -1.2 ± 0.056 | -0.278 ± 0.076 |
| UACCAGCAAUAUUACGACGA | -0.586 ± 0.086 | 0.837 ± 0.11 |
| UACCAGCAAUAUUACGAGGG | -3.38 ± 0.2 | -1.3 ± 0.12 |
| UACCAGCAAUAUUACGAGGU | -3.36 ± 0.22 | -3.39 ± 0.23 |
| UACCAGCAAUAUUACGAGUG | -0.127 ± 0.052 | -0.0711 ± 0.067 |
| UACCAGCAAUAUUACGCAAG | -2.3 ± 0.13 | -0.829 ± 0.13 |
| UACCAGCAAUAUUACGCACC | -1.52 ± 0.26 | -0.172 ± 0.21 |
| UACCAGCAAUAUUACGCCAA | -2.05 ± 0.12 | -0.589 ± 0.099 |
| UACCAGCAAUAUUACGCGAU | -2.6 ± 0.17 | -0.608 ± 0.15 |
| UACCAGCAAUAUUACGCGCU | -3.47 ± 0.37 | -1.77 ± 0.22 |
| UACCAGCAAUAUUACGCUCU | -0.618 ± 0.072 | 0.00956 ± 0.082 |
| UACCAGCAAUAUUACGCUGG | -3.35 ± 0.18 | -2.77 ± 0.22 |
| UACCAGCAAUAUUACGCUGU | -3.86 ± 0.17 | -1.36 ± 0.13 |
| UACCAGCAAUAUUACGGCAG | -0.582 ± 0.081 | 0.685 ± 0.1 |
| UACCAGCAAUAUUACGGCGA | -0.21 ± 0.13 | 0.254 ± 0.19 |
| UACCAGCAAUAUUACGGGUG | -3.23 ± 0.097 | -1.78 ± 0.078 |
| UACCAGCAAUAUUACGGUGA | -0.536 ± 0.057 | 0.0523 ± 0.075 |
| UACCAGCAAUAUUACGUCGU | -2.09 ± 0.09 | -2.14 ± 0.12 |
| UACCAGCAAUAUUACGUGAG | -2.27 ± 0.083 | -1.56 ± 0.085 |
| UACCAGCAAUAUUACGUGAU | -1.93 ± 0.063 | -1.41 ± 0.074 |
| UACCAGCAAUAUUACGUGCC | -3.35 ± 0.24 | -0.584 ± 0.19 |
| UACCAGCAAUAUUACGUGGU | -3.86 ± 0.14 | -2.89 ± 0.16 |
| UACCAGCAAUAUUACGUGUA | -2.59 ± 0.12 | -1.67 ± 0.1 |
| UACCAGCAAUAUUACGUGUG | -1.22 ± 0.046 | -0.527 ± 0.059 |
| UACCAGCAAUAUUACGUUAG | -1.18 ± 0.068 | -1.16 ± 0.067 |

| Sequence | self-splicing fitness (ln) (30 °C) | self-splicing fitness (ln) (37 °C) |
| --- | --- | --- |
| UACGAGCAAUAUUACGACAU | -3.899 ± 0.031 | -2.47 ± 0.04 |
| UACGAGCAAUAUUACGAUGG | -2.85 ± 0.22 | -2.29 ± 0.24 |
| UACGAGCAAUAUUACGCACG | -2.94 ± 0.2 | -1.3 ± 0.18 |
| UACGAGCAAUAUUACGCAUC |  | -1.96 ± 0.21 |
| UACGAGCAAUAUUACGCGCC | -2.33 ± 0.42 |  |
| UACGAGCAAUAUUACGCUCG |  | -1.74 ± 0.31 |
| UACGAGCAAUAUUACGGACG | -2.32 ± 0.12 | -1.24 ± 0.15 |
| UACGAGCAAUAUUACGGAUA | -2.3 ± 0.17 | -1.43 ± 0.12 |
| UACGAGCAAUAUUACGGCCA | -1.61 ± 0.21 | -1.85 ± 0.18 |
| UACGAGCAAUAUUACGGGCU |  | -2.43 ± 0.27 |
| UACGAGCAAUAUUACGUACA | -0.833 ± 0.27 | -1.22 ± 0.48 |
| UACUAGCAAUAUUACGAAUA | -1.51 ± 0.18 | -0.474 ± 0.13 |
| UACUAGCAAUAUUACGAUGC | -4.22 ± 0.26 | -2.54 ± 0.3 |
| UACUAGCAAUAUUACGCAGA | -3.67 ± 0.47 | -2.27 ± 0.22 |
| UACUAGCAAUAUUACGCAUU | -3.73 ± 0.21 | -1.81 ± 0.14 |
| UACUAGCAAUAUUACGCCGU | -2.24 ± 0.25 | -2.67 ± 0.48 |
| UACUAGCAAUAUUACGCGAG | -1.86 ± 0.072 | -1.59 ± 0.07 |
| UACUAGCAAUAUUACGCGCA | -0.569 ± 0.071 | 0.207 ± 0.094 |
| UACUAGCAAUAUUACGCGGA | -2.97 ± 0.18 | -1.42 ± 0.16 |
| UACUAGCAAUAUUACGCGGU | -3.43 ± 0.47 | -2.52 ± 0.33 |
| UACUAGCAAUAUUACGCGUA | -2.63 ± 0.22 | -2.33 ± 0.23 |
| UACUAGCAAUAUUACGCUAC |  | -2.01 ± 0.34 |
| UACUAGCAAUAUUACGCUAG | -3.86 ± 0.25 | -2.08 ± 0.21 |
| UACUAGCAAUAUUACGCUCU | -0.792 ± 0.085 | -0.262 ± 0.1 |
